From patent publication US20230391885A1 (INTEGRAL MOLECULAR, published 2023)
Like-named read-outs stand apart in the source and are kept apart here.

Columns and labels:
Claudin 18.2 (human) [1] = biological target: T1, Claudin 18.2 (human) (human); test: biolayer interferometry (Octet Red), biotinylated hsCLDN18.2-VLPs on streptavidin tips, antibody in solution, 1:1 model
T1 construct: Multispanning membrane protein; also called hsCLDN18.2

Claudin 18.2 (human) [2] = biological target: T1, Claudin 18.2 (human); test: flow cytometry, antibody titration on HEK-293T cells transfected with human CLDN18.2
Source text: (§1) Fluorescence was detected using an Intellicyt high-throughput flow cytometer (HTFC; Intellicyt, Albuquerque, NM).”).

Claudin 18.2 (mouse) [3] = biological target: T2, Claudin 18.2 (mouse) (mouse, UniProt P56857 10-264); test: flow cytometry, antibody titration on HEK-293T cells transfected with mouse CLDN18.2
T2 construct: Expressed on transfected HEK-293T cells; also called mouse CLDN18.2
T2 chain: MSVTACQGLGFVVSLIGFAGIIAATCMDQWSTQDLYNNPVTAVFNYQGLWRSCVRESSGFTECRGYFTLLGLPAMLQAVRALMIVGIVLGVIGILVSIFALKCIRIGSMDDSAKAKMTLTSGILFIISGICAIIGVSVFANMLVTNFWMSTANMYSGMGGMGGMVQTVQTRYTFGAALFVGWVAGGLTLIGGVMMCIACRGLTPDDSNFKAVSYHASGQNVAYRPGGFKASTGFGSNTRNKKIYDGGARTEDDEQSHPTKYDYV
Source text: as §1

[4] = biological target: T3, Claudin 18.2 (cynomolgus) (cynomolgus); test: flow cytometry, antibody titration on HEK-293T cells transfected with cynomolgus CLDN18.2
T3 construct: Expressed on transfected HEK-293T cells; also called cynomolgus CLDN18.2
T3 chain: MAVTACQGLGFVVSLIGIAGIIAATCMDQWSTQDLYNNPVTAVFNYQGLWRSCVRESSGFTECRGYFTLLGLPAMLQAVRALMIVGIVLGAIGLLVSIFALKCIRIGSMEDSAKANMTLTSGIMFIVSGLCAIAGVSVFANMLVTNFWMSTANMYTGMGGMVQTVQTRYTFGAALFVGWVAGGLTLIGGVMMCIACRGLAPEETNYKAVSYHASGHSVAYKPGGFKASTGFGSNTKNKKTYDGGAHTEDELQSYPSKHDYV
Source text: as §1

Claudin 18.2 (human) [5] = biological target: T1, Claudin 18.2 (human); test: cell binding (MFI), titration on cells with native Claudin 18.2; cell type and species not stated for this figure
Claudin 18.2 (human) [6] = biological target: T1, Claudin 18.2 (human); test: flow cytometry, antibody titration on HEK-293T cells transfected with hsCLDN18.2, APC-labelled anti-human secondary
Source text: Fluorescence was detected using an Intellicyt high-throughput flow cytometer (HTFC; Intellicyt, Albuquerque, NM).

Claudin 18.2 (human) [7] = biological target: T1, Claudin 18.2 (human); test: biolayer interferometry (Octet Red), biotinylated hsCLDN18.2-VLPs on streptavidin tips, antibody in solution, 1:1 model; hsCLDN18.2 on biotinylated VLPs on the biosensor tip
Procedure: All biosensor studies were performed in PBS buffer supplemented with 1 mg/mL bovine serum albumin (BSA; PBS-B) at 25° C. using a ForteBio Octet Red biosensor system (Pall-ForteBio, Inc., Menlo Park, CA). […] Antibody binding and dissociation kinetics were determined for serial dilutions of antibody in PBS-B starting at 20 μg/mL. Antibody association was measured for 5 minutes followed by dissociation for up to 45 minutes in buffer. Non-specific binding was assessed using sensor tips with VLPs containing only endogenous proteins (Null VLPs). Data analysis was performed using the Octet data analysis program (v8.1; ForteBio) using a standard 1:1 binding model.

Claudin 18.2 (human) [8] = biological target: T1, Claudin 18.2 (human); test: flow cytometry, antibody titration on HEK-293T cells transfected with human CLDN18.2; remark: listed apart in the source
Source text: as §1

Claudin 18.2 (mouse) [9] = biological target: T2, Claudin 18.2 (mouse); test: flow cytometry, antibody titration on HEK-293T cells transfected with mouse CLDN18.2
Source text: as §1

[10] = biological target: T3, Claudin 18.2 (cynomolgus); test: flow cytometry, antibody titration on HEK-293T cells transfected with cynomolgus CLDN18.2
Source text: as §1

Claudin 18.2 (human) [11] = biological target: T1, Claudin 18.2 (human); test: cell binding (MFI), titration on cells with native Claudin 18.2; cell type and species not stated for this figure; remark: listed apart in the source
Claudin 18.2 (mouse) [12] = biological target: T2, Claudin 18.2 (mouse); test: flow cytometry, antibody titration on HEK-293T cells transfected with mouse CLDN18.2
Source text: as §1

[13] = biological target: T3, Claudin 18.2 (cynomolgus); test: flow cytometry, antibody titration on HEK-293T cells transfected with cynomolgus CLDN18.2
Source text: as §1

Claudin 18.2 (human) [14] = biological target: T1, Claudin 18.2 (human); test: cell binding (MFI), titration on cells with native Claudin 18.2; cell type and species not stated for this figure; remark: listed apart in the source

B1: zolbetuximab (antibody, V domains shown)
VH: QVQLQQPGAELVRPGASVKLSCKASGYTFTSYWINWVKQRPGQGLEWIGNIYPSDSYTNYNQKFKDKATLTVDKSSSTAYMQLSSPTSEDSAVYYCTRSWRGNSFDYWGQGTTLTVSS
VL: DIVMTQSPSSLTVTAGEKVTMSCKSSQSLLNSGNQKNYLTWYQQKPGQPPKLLIYWASTRESGVPDRFTGSGSGTDFTLTISSVQAEDLAVYYCQNDYSYPFTFGSGTKLEIK
B1 gave a Kd (Claudin 18.2 (human) [1]) of 0.3 nM.

B2: MAb2 (IM-44-01E10-1HA) (antibody, V domains shown)
VH: EVQLLESGGGLVQPGGSLRLSCAASGFTFSSYGMSWVRQAPGKGLEWVAGIGSSGSDTWYADSVKGRFTISRDNSKNTLYLQMNSLRAEDTAVYYCAKDATNGYCWYTGRGSYSCGAHHIDAWGQGTLVTVSS
VL: SYELTQPPSVSVSPGQTARITCSGGSGSYGYYGWYQQKPGQAPVTVIYGTNKRPSGIPERFSGSSSGTTVTLTISGVQAEDEADYYCGGYDSSAGIFGGGTKLTVL
notes: Humanized antibody derived from a chicken scFv; tested as 'purified IgG' (bivalent); The general methods say candidate scFv were converted to human IgG1-Fc (scFv-Fc) format
B2 was tested, and the “EC50 (read off the curve)” value (Claudin 18.2 (human) [2]) was roughly 6 nM, the “EC50 (read off the curve)” value (Claudin 18.2 (mouse) [3]) was roughly 6 nM and the “EC50 (read off the curve)” value [4] was roughly 4 nM. The “EC50 (read off the curve)” value (Claudin 18.2 (human) [5]) was roughly 4 nM, the “EC50 (read off the curve)” value (Claudin 18.2 (human) [6]) was roughly 4 nM and the Kd (Claudin 18.2 (human) [7]) was 0.3 nM.

B3: monovalent form of MAb2 (other)
VH: EVQLLESGGGLVQPGGSLRLSCAASGFTFSSYGMSWVRQAPGKGLEWVAGIGSSGSDTWYADSVKGRFTISRDNSKNTLYLQMNSLRAEDTAVYYCAKDATNGYCWYTGRGSYSCGAHHIDAWGQGTLVTVSS
VL: SYELTQPPSVSVSPGQTARITCSGGSGSYGYYGWYQQKPGQAPVTVIYGTNKRPSGIPERFSGSSSGTTVTLTISGVQAEDEADYYCGGYDSSAGIFGGGTKLTVL
notes: also called MAb2 monovalent; monomeric MAb2
In the case of B3, the “EC50 (read off the curve)” value (Claudin 18.2 (human) [5]) is reported as roughly 10 nM.

B4: MAb1 (IM-44-09B03-1H1B) (antibody, V domains shown)
VH: EVQLLESGGGLVQPGGSLRLSCAASGFTFSSYGMGWVRQAPGKGLEWVAAITRDSSTNYGAAVKGRATISRDNSKNTLYLQMNSLRAEDTAVYYCAKDASNGYCWYTGRGSYSCGAHHIDAWGQGTLVTVSS
VL: SYELTQPPSVSVSPGQTARITCSGGYNGHYGWYQQKPGQAPVTVIYSNNQRPSGIPERFSGSSSGTTVTLTISGVQAEDEADYYCGGYDSSAGIFGGGTKLTVL
notes: Humanized antibody derived from a chicken scFv; tested as 'purified IgG' (bivalent); The general methods say candidate scFv were converted to human IgG1-Fc (scFv-Fc) format; also called IM-44-09B03-1HB; IM-44-09B03-1HIB
For B4, the “EC50 (read off the curve)” value (Claudin 18.2 (human) [8]) was roughly 4 nM, the “EC50 (read off the curve)” value (Claudin 18.2 (mouse) [9]) was roughly 4 nM and the “EC50 (read off the curve)” value [10] was roughly 5 nM. For the same binder, the “EC50 (read off the curve)” value (Claudin 18.2 (human) [11]) was roughly 0.8 nM, the “EC50 (read off the curve)” value (Claudin 18.2 (human) [6]) was roughly 5 nM and the Kd (Claudin 18.2 (human) [7]) was 0.1 nM.

B5: monovalent form of MAb1 (other)
VH: EVQLLESGGGLVQPGGSLRLSCAASGFTFSSYGMGWVRQAPGKGLEWVAAITRDSSTNYGAAVKGRATISRDNSKNTLYLQMNSLRAEDTAVYYCAKDASNGYCWYTGRGSYSCGAHHIDAWGQGTLVTVSS
VL: SYELTQPPSVSVSPGQTARITCSGGYNGHYGWYQQKPGQAPVTVIYSNNQRPSGIPERFSGSSSGTTVTLTISGVQAEDEADYYCGGYDSSAGIFGGGTKLTVL
notes: also called MAb1 monovalent; monomeric MAb1
In the case of B5, the “EC50 (read off the curve)” value (Claudin 18.2 (human) [11]) is reported as roughly 3 nM.

B6: MAb3 (IM-44-05H06-1HD) (antibody, V domains shown)
VH: EVQLLESGGGLVQPGGSLRLSCAASGFTFRSYAMMWVRQAPGKGLEWVGEISSTGGSTYYGSAVKGRATISRDNSKNTLYLQMNSLRAEDTAVYYCAKSTYGATWKSADSIDAWGQGTLVTVSS
VL: SYELTQPPSVSVSPGQTARITCSGGYNGHYGWYQQKPGQAPVLVIYSNNQRPSGIPERFSGSSSGTTVTLTISGVQAEDEADYYCGGYDSSAGIFGGGTKLTVL
notes: as for B2
B6 was tested, and the “EC50 (read off the curve)” value (Claudin 18.2 (mouse) [12]) was roughly 9 nM, the “EC50 (read off the curve)” value [13] was roughly 9 nM and the “EC50 (read off the curve)” value (Claudin 18.2 (human) [14]) was roughly 3 nM. The Kd (Claudin 18.2 (human) [7]) was 1.2 nM.
